For orientation: stoichiometry N means the number of molecules, sites or subunits per partner or assembly.

Where a chain is given by its changes, count along the chain named.

For data set [1], the target named is T1, Dbp6 (Saccharomyces cerevisiae, UniProt P53734).
T1 construct: full-length ORF, His6 tag (modified pET-15b, pET-Dbp6), kept; E. coli Rosetta λDE3; ca. 73 kDa; size exclusion fraction, mainly monomer / dimer
T1 sequence (P53734 1-629): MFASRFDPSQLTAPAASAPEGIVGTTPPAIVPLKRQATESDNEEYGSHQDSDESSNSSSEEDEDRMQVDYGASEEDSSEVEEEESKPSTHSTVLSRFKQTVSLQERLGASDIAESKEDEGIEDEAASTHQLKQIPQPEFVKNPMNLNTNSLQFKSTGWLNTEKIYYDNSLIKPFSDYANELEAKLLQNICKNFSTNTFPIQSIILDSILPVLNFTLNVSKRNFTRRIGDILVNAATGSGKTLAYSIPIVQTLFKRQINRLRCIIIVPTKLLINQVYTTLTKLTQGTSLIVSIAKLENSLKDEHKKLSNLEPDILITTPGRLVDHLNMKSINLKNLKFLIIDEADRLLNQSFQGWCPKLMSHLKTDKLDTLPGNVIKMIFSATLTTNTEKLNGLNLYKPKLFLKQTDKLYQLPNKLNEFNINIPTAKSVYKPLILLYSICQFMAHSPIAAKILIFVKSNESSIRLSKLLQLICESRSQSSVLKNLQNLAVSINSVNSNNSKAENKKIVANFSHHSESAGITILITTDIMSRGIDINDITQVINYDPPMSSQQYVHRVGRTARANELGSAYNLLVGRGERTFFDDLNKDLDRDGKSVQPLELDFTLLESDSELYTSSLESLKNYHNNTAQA
As to the kind of experiment: ATPase assay, TLC of [α-32P]-ADP. The following applies: 100 μM ATP, 0.8 μM protein, 2 μM ss58-mer RNA, MgCl2 2.5 mM, pH 8, 30°C; trace E. coli ATPase not excluded by the authors. Format: biochemical.

The target in data set [2] is T1, Dbp6. Nature of the data set: EMSA, effect on Dbp6 binding to hemi-duplex RNA ds38/[…]. To be noted: 0.5-5 mM nucleotide, 0.5 μM protein, 1 nM RNA, MgCl2 2.5 mM, pH 8, 30°C; indirect read-out. (In EMSA bound probe runs differently from free probe, usually more slowly.)
For data set [3], the target named is T1, Dbp6. Nature of the data set: RNA strand annealing assay (ss38-mer / ss58-mer), effect of nucleotide. Format: biochemical. To be noted: 5 mM ADP, 0.25 μM protein, MgCl2 2.5 mM, pH 8, 30°C; indirect read-out.
For data set [4], the target named is T2, Dbp6 M-II mutant (motif II, DEAD to DAAD), His6-tagged recombinant, P53734.
T2 chain: T1 sequence (P53734 1-629) with E342A
As to the kind of experiment: UV cross-linking. To be noted: chain shown with the change, no RNA included, parent: est. 0.51, read off a plot.

Data set [5] deals with the molecule itself. Nature of the data set: SEC; Superdex 200 gel filtration after HisTrap; GF-ATPase buffer (20 mM Tris–HCl pH 8.0, 100 mM KCl, 10% glycerol, 1 mM DTT, 0.5 mM PMSF); column calibrated with molecular weight standards. (Size exclusion chromatography separates by hydrodynamic size, large species first.)
Data set [6] concerns the molecule itself. Nature of the data set: cross-linking; purified recombinant Dbp6 (1.5 or 0.8 μM) in RB 1× buffer, 15 min at 20°C, UV 312 nm for 6 min on ice; SDS-PAGE, western blot or silver staining; with or without ATP (1 or 5 μM with labelled ATP; 5 mM) and RNA oligonucleotide. In general terms: A western blot detects proteins with antibodies after separation by electrophoresis.

Data set [7] deals with the molecule itself. As to the kind of experiment: co-IP; immunoprecipitation of Dbp6-ZZ with IgG-sepharose from extracts of a yeast strain expressing HA-Dbp6 and ZZ-tagged Dbp6, in the presence of RNase; western blot.
The target of data set [8] is T3, Dbp6 M-I mutant (motif I, GTGKT), His6-tagged recombinant, P53734.
T3 chain: T1 sequence (P53734 1-629) with K240A
As to the kind of experiment: UV cross-linking. The following applies: chain shown with the change, no RNA included, parent: est. 0.51, read off a plot.

For data set [9], the target named is T4, Dbp6 (Saccharomyces cerevisiae, UniProt P53734 1-629).
T4 sequence: T1 sequence (P53734 1-629)
Nature of the data set: EMSA; no nucleotide; EMSA: 1 nM 32P-RNA, RB 1x (composition not in the material), RNasin, 15 min at 30 C, native PAGE in TBE; bridging: 0.8 uM Dbp6, RB 1x, 15 min at 30 C. To be noted: protein: recombinant; tags: N-terminal His6; label: 32P.

For data set [10], the target named is T4, Dbp6. As to the kind of experiment: EMSA; high affinity; no nucleotide; EMSA: 1 nM 32P-RNA, RB 1x (composition not in the material), RNasin, 15 min at 30 C, native PAGE in TBE; bridging: 0.8 uM Dbp6, RB 1x, 15 min at 30 C. To be noted: protein: recombinant; tags: N-terminal His6; label: 32P on ss38-mer; 3' overhang 20 nt on strand 1; 38 bp region with one C-C mismatch.

For data set [11], the target named is T4, Dbp6. Nature of the data set: EMSA; Dbp6 up to 1.2 uM; EMSA: 1 nM 32P-RNA, RB 1x (composition not in the material), RNasin, 15 min at 30 C, native PAGE in TBE; bridging: 0.8 uM Dbp6, RB 1x, 15 min at 30 C. To be noted: protein: recombinant; tags: N-terminal His6; label: 32P.

`Nc1ncnc2c1ncn2[C@@H]1O[C@H](COP(=O)(O)OP(=O)(O)OP(=O)(O)O)[C@@H](O)[C@H]1O` [ATP]: the “ATPase assay, TLC of [α-32P]-ADP” value at Dbp6 [1] is “This ATPase activity could be attributed to Dbp6”.

For `Nc1ncnc2c1ncn2[C@@H]1O[C@H](COP(=O)(O)OP(=O)(O)OP(O)(O)=S)[C@@H](O)[C@H]1O` [ATPγS], at Dbp6 [2], the “EMSA, effect on Dbp6 binding to hemi-duplex RNA ds38/58” value is reported as “ATPγS had an even stronger effect on Dbp6 binding to the hemi-duplex than ATP”.

Consider `Nc1ncnc2c1ncn2[C@@H]1O[C@H](COP(=O)(O)OP(=O)(O)O)[C@@H](O)[C@H]1O` [ADP], for which the “RNA strand annealing assay (ss38-mer / ss58-mer), effect of nucleotide” value at Dbp6 [3] is “In contrast, ADP addition increased the annealing activity of Dbp6”.

B1: recombinant His6-Dbp6, P53734 M-II: E to A in motif II (DEAD to DAAD) (protein)
chain: T1 sequence (P53734 1-629) with E342A
On to B1, for which the other: quantity of oligomers with ATP, relative to without ATP (set at 1) in data set [4] was 0.96.

B2: recombinant His6-Dbp6 (enzyme, S. cerevisiae, UniProt P53734 1-629, looked up)
chain: T1 sequence (P53734 1-629)
notes: DEAD-box protein Dbp6 of yeast (S. cerevisiae), DBP6 ORF cloned downstream of a His tag in modified pET-15b; His6-Dbp6 ca. 73 kDa; SEC fractions also hold some truncated fragments of Dbp6; fraction F17 was used for the in vitro assays; also called WT Dbp6; wild-type Dbp6; source: E. coli Rosetta λDE3, purified (HisTrap FF, Superdex 200); not shown: His6, N-terminal, kept
Take B2: in data set [5], the “stoichiometry N” value came out at 2. In addition, the “fold reduction of oligomerization with 5 mM ATP against no ATP” value in data set [6] is around 2 fold.

B3: Dbp6 expressed in yeast as HA-Dbp6 and as Dbp6-ZZ (enzyme, S. cerevisiae, UniProt P53734 1-629, looked up)
chain: T1 sequence (P53734 1-629)
notes: DEAD-box protein Dbp6 of yeast (S. cerevisiae); HA-tagged ORF under the GAL1-10 promoter and wild-type DBP6 cassette in pHA113 between a GAR1 promoter and a ZZ tag; also called ZZ-tagged Dbp6; GAL::HA-DBP6; source: yeast strain expressing HA-Dbp6 as well as ZZ-tagged Dbp6, in extract
For the molecule B3, the “fold enrichment over background” value in [7] was around 2 fold.

B4: recombinant His6-Dbp6, P53734 M-I: K to A in motif I (GTGKT) (protein)
chain: T1 sequence (P53734 1-629) with K240A
Consider B4, for which the other: quantity of oligomers with ATP, relative to without ATP (set at 1) in data set [8] turned out to be 0.97.

B5: Dbp6 ΔN mutant (lacking the N-terminal D/E-rich sequence, residues 24–128), His6-tagged recombinant (enzyme, S. cerevisiae, UniProt P53734 1-629, looked up)
chain: MFASRFDPSQLTAPAASAPEGIVHQLKQIPQPEFVKNPMNLNTNSLQFKSTGWLNTEKIYYDNSLIKPFSDYANELEAKLLQNICKNFSTNTFPIQSIILDSILPVLNFTLNVSKRNFTRRIGDILVNAATGSGKTLAYSIPIVQTLFKRQINRLRCIIIVPTKLLINQVYTTLTKLTQGTSLIVSIAKLENSLKDEHKKLSNLEPDILITTPGRLVDHLNMKSINLKNLKFLIIDEADRLLNQSFQGWCPKLMSHLKTDKLDTLPGNVIKMIFSATLTTNTEKLNGLNLYKPKLFLKQTDKLYQLPNKLNEFNINIPTAKSVYKPLILLYSICQFMAHSPIAAKILIFVKSNESSIRLSKLLQLICESRSQSSVLKNLQNLAVSINSVNSNNSKAENKKIVANFSHHSESAGITILITTDIMSRGIDINDITQVINYDPPMSSQQYVHRVGRTARANELGSAYNLLVGRGERTFFDDLNKDLDRDGKSVQPLELDFTLLESDSELYTSSLESLKNYHNNTAQA
notes: made from pET-Dbp6; also called pET-ΔN; source: E. coli Rosetta λDE3, purified (HisTrap FF, Superdex 200)
Take B5: the binding result in data set [5] is reported as “binds”.

As to CAGAACCGCUACACUGAAAUGAUCAAUUCCGGUCUCCC (ssRNA) [ss38-mer], the binding result in the data set with Dbp6 [9] is recorded as “binds”.

B6: ds38/58 hemi-duplex (dsRNA)
RNA 1: GGGAGACCGGAAUUCAUCAUUUCAGUGUAGCGGUUCUGACGUGCAAAUCGAUCGUCGA
RNA 2: CAGAACCGCUACACUGAAAUGAUCAAUUCCGGUCUCCC
Regarding B6, the binding result with Dbp6 [10] is given as “binds”.

As for GGGAGACCGGAAUUCAUCAUU (ssRNA) [ss21-mer], in the data set with Dbp6 [11], the binding result was “no binding”.
